Results as given in the RNAGym collection of RNA variant scans (doi:10.1073/pnas.2313332121).

B1: TPR t1 (parent)
chain: GACCAAUCUGCCCUCAGAGCUCGAGAACAUCUUCGGAUGCAGAGGAGGCAGGCUUCGGUGGCGCGAUAGCGCCAACGUCCUCAACCUCCAAUGCAUCCCACCACAUGAUGAUGCCUGAAGAGCCUUGGUUUUUUG

Variants of: B1
Test: polymerase ribozyme fitness, log enrichment relative to wild type (log ratio); higher = more active; in vitro selection for triplet polymerase activity
Outline: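 PCR was used to build mutant libraries for each subunit of a heterodimeric triplet polymerase ribozyme, which were then transcribed. A single in vitro selection round, in triplicate, used a frozen incubation at −7 °C and recovered extended constructs by gel excision, streptavidin beads and RT-PCR. Fitness is the logarithm of genotype enrichment relative to wild-type enrichment, averaged over replicates with inverse-variance weights. The logarithm is base 2, and after Illumina sequencing only genotypes with ≥10 input reads and ≥1 read per output were kept.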

| Variant | polymerase ribozyme fitness (log ratio) |
| --- | --- |
| U126A G128C | -2.86 |
| G127C G128A | -1.79 |
| A118U C123A U130C | -0.0514 |
| A118G G122A U129A | -1.35 |
| A119G U132A | 1.24 |
| C115U G120C C123A | 0.543 |
| U116G G120U | -2.52 |
| U116G G120C | -0.715 |
| U125A G127C | -1.91 |
| A118G G120C | -0.275 |
| C123A | 0.556 |
| C123U | 1.07 |
| C123G | 1.8 |
| C115U U125A | -0.551 |
| U126G G127A | -2.54 |
| U116C A121G U129C | -3.73 |
| A119U G120U | -0.548 |
| A119U G120C | 1.55 |
| G120A C124U | 1.89 |
| G117A U125G | -1.64 |
| G117A G127C | -1.7 |

| Variant | polymerase ribozyme fitness (log ratio) |
| --- | --- |
| G117A G127A | -4.19 |
| C115U G135U | -1.91 |
| A121U G135U | 1.28 |
| C123U G128C | -0.354 |
| A121G U132A | 1.94 |
| G120A G128U | -0.62 |
| C123A U132A | 1.54 |
| G120U G122U | 0.765 |
| C124G U131G | 1.33 |
| C124G U131A | 2.2 |
| G117U C123A | -2.17 |
| G117U C123G | -1.56 |
| U129C U131A | -0.49 |
| U129C U131G | 0.298 |
| A119U C124A | 1.28 |
| A121G U129C | 0.0991 |
| G120A G135U | 0.435 |
| U116C G120U | 0.377 |
| C124A U131G | 1.63 |
| A119C C124G | -2.41 |
| A119C C124A | -2.4 |

| Variant | polymerase ribozyme fitness (log ratio) |
| --- | --- |
| U125A U131G | 0.203 |
| U125A U131C | -0.281 |
| U116G G117A | -1.82 |
| G120C G135C | 1.48 |
| G120A G122A G128C | -2.03 |
| G117U A121C | -2.4 |
| G117U U133C | -2.23 |
| U129C U134G | 1.11 |
| U126G U129A | -2.97 |
| A119U G135U | -1.1 |
| G128C | -2.23 |
| G128A | -1.65 |
| G128U | -1.57 |
| G120A U129A | -0.0881 |
| U116A U130C | -2.68 |
| G120C U130G | 0.395 |
| G127C U130C | 0.0399 |
| G117C A118C | -3.06 |
| G117C A118G | -3.04 |
| U116G U125A | -2.37 |
| U116G G120C U129A | -2.49 |

| Variant | polymerase ribozyme fitness (log ratio) |
| --- | --- |
| G122A G128U G135U | -2.49 |
| G117U A118U | -2.66 |
| U116A C123U | -1.63 |
| C124A G128A | -0.565 |
| U129G U133A | -2 |
| U116G U126C | -3.51 |
| U125C | -1.8 |
| U125G | -1.01 |
| U125A | -0.431 |
| G117C C124A G127U | -4.29 |
| U129C U132A | -0.43 |
| G120C G127U | 2.11 |
| C115U G128C | -3.16 |
| G127A | -1.25 |
| G127U | -0.639 |
| G127C | -1.03 |
| A121C U130A | 0.644 |
| G117C U125A G135C | -4.9 |
| G117C C123U U126A | -5.9 |
| C123U U132A | 2.23 |
| G120A U125A U126A G128A | 0.067 |
